What was measured:
SOS1 = SOS1 (UniProt Q07889); experiment: anti-FLAG IP, SRM mass spectrometry; settings: reference: wild type, no EGF
VAV2 = VAV2 (UniProt P52735); experiment: anti-FLAG IP, SRM mass spectrometry; settings: reference: wild type, no EGF

**Q.** What does the source list for “EGFR (chimeric EGFR-FLAG-GFP) (from UniProt P00533) wild type, EGF 15 min”?
**A.** fold change (SOS1): 1.91 fold; fold change (VAV2): 1.4 fold
